Experimental data from the Immune Epitope Database (IEDB).
pIC50, pKd: −log10 of the molar value.

What was measured:
HLA-C*14:02 = assay: IEDB peptide-MHC binding, purified MHC/direct/fluorescence; filed as Kd, often an IC50 or EC50 that approximates it; ≥ and ≤ were set here for values at or beyond the usual limits of such assays
HLA-B*07:02 = assay: as above
HLA-A*24:02 [1] = assay: as above
HLA-A*01:01 = assay: as above
HLA-B*58:01 = assay: as above
HLA-A*02:01 [2] = assay: as above
HLA-B*08:01 [3] = assay: as above
HLA-A*03:01 [4] = assay: as above
HLA-B*15:01 [5] = assay: as above
HLA-B*08:02 = assay: as above
HLA-B*27:05 = assay: as above
HLA-A*31:01 = assay: as above
HLA-A*11:01 = assay: as above
HLA-A*69:01 = assay: as above
HLA-B*46:01 [6] = assay: as above
HLA-B*08:01 [7] = assay: IEDB peptide-MHC binding, purified MHC/competitive/fluorescence; filed as Kd, often an IC50 or EC50 that approximates it; ≥ and ≤ were set here for values at or beyond the usual limits of such assays
HLA-B*44:02 = assay: IEDB peptide-MHC binding, purified MHC/direct/fluorescence; filed as Kd, often an IC50 or EC50 that approximates it; ≥ and ≤ were set here for values at or beyond the usual limits of such assays
HLA-B*40:01 = assay: as above
HLA-B*18:01 [8] = assay: as above
HLA-A*26:01 [9] = assay: as above
HLA-C*12:03 = assay: as above; settings: source organism: Yersinia pestis Nepal516
HLA-C*03:03 = assay: as above; settings: source organism: Yersinia pestis Nepal516
HLA-A*02:01 [10] = assay: IEDB peptide-MHC binding, purified MHC/competitive/fluorescence; filed as Kd, often an IC50 or EC50 that approximates it; ≥ and ≤ were set here for values at or beyond the usual limits of such assays
HLA-B*35:01 = assay: as above; settings: source organism: Yersinia pestis Nepal516
HLA-B*39:01 = assay: as above
HLA-C*05:01 = assay: IEDB peptide-MHC binding, purified MHC/direct/fluorescence; filed as Kd, often an IC50 or EC50 that approximates it; ≥ and ≤ were set here for values at or beyond the usual limits of such assays; settings: source organism: Influenza A virus H3N2
HLA-A*24:02 [11] = assay: IEDB peptide-MHC binding, purified MHC/competitive/fluorescence; ≥ and ≤ were set here for values at or beyond the usual limits of such assays; settings: source organism: Vaccinia virus
HLA-A*02:01 [12] = assay: as above; settings: source organism: Vaccinia virus
HLA-A*03:01 [13] = assay: as above; settings: source organism: Vaccinia virus
HLA-B*15:01 [14] = assay: as above; settings: source organism: Vaccinia virus
HLA-B*15:03 = assay: IEDB peptide-MHC binding, purified MHC/competitive/radioactivity; filed as Kd, often an IC50 or EC50 that approximates it; ≥ and ≤ were set here for values at or beyond the usual limits of such assays; settings: source organism: Vaccinia virus WR
HLA-B*27:03 = assay: IEDB peptide-MHC binding, purified MHC/competitive/fluorescence; filed as Kd, often an IC50 or EC50 that approximates it; ≥ and ≤ were set here for values at or beyond the usual limits of such assays; settings: source organism: Entamoeba histolytica HM-1:IMSS
HLA-A*29:02 = assay: as above; settings: source organism: Entamoeba histolytica HM-1:IMSS
HLA-B*51:01 = assay: as above; settings: source organism: Entamoeba histolytica HM-1:IMSS
HLA-A*26:01 [15] = assay: as above; settings: source organism: Entamoeba histolytica HM-1:IMSS
HLA-A*02:19 = assay: as above; settings: source organism: Entamoeba histolytica HM-1:IMSS
HLA-B*18:01 [16] = assay: as above; settings: source organism: Entamoeba histolytica HM-1:IMSS
HLA-A*03:01 [17] = assay: as above; settings: source organism: Entamoeba histolytica HM-1:IMSS
HLA-B*57:01 = assay: as above; settings: source organism: Entamoeba histolytica HM-1:IMSS
HLA-B*15:01 [18] = assay: as above; settings: source organism: Entamoeba histolytica HM-1:IMSS
HLA-B*46:01 [19] = assay: as above; settings: source organism: Entamoeba histolytica HM-1:IMSS
HLA-B*15:17 = assay: as above; settings: source organism: Entamoeba histolytica HM-1:IMSS
[20] = source organism: Mycobacterium tuberculosis variant bovis BCG str. Pasteur 1173P2
[21] = source organism: Influenza A virus (A/Duck/Shantou/2088/01(H9N2))
[22] = source organism: Influenza A virus (A/Puerto Rico/8/34/Mount Sinai(H1N1))
[23] = source organism: Escherichia coli O157:H7
[24] = source organism: Brucella abortus
[25] = source organism: Brucella suis 1330
[26] = source organism: Yersinia pestis Nepal516
[27] = source organism: Influenza A virus (A/Ck/HK/2133.1/2003(H5N1))
[28] = source organism: Giardia lamblia ATCC 50803

In the case of APINSATAM, the pKd (HLA-C*14:02; [20]) was 6.49.

Sequence APPPFRLPL has a pKd (HLA-C*14:02; source organism: Mycobacterium tuberculosis H37Rv) of 6.15 and a pKd (HLA-B*07:02; [20]) of 7.11.

EEMATKADY gave a pKd (HLA-A*24:02 [1]; [21]) of at most 4.70, a pKd (HLA-A*01:01; [21]) of at most 4.70 and a pKd (HLA-B*58:01; [21]) of at most 4.70. The pKd (HLA-A*02:01 [2]; [21]) was at most 4.70, the pKd (HLA-B*08:01 [3]; [21]) was at most 4.70 and the pKd (HLA-A*03:01 [4]; [21]) was at most 4.70. It also gave a pKd (HLA-B*15:01 [5]; [22]) of 5.84, a pKd (HLA-B*08:02; source organism: Influenza A virus (A/Taiwan/2/2006(H1N1))) of at most 4.70 and a pKd (HLA-B*27:05; [21]) of at most 4.70. For the same sequence, the pKd (HLA-A*31:01; [21]) was at most 4.70, the pKd (HLA-A*11:01; [21]) was at most 4.70 and the pKd (HLA-A*69:01; [21]) was at most 4.70. The pKd (HLA-B*07:02; [21]) was at most 4.70 and the pKd (HLA-B*46:01 [6]; [21]) was at most 4.70.

EYIWRSLKI gave a pKd (HLA-A*24:02 [1]; source organism: Entamoeba histolytica) of at least 9.00.

FDERRNRYL was tested, and the pKd (HLA-B*08:01 [7]; source organism: Influenza A virus (A/parakeet/Narita/92A/98(H9N2))) was at most 4.70.

For LPPERRQPF, the pKd (HLA-B*44:02; [23]) was at most 4.70, the pKd (HLA-A*24:02 [1]; [23]) was at most 4.70 and the pKd (HLA-B*40:01; [23]) was at most 4.70. The pKd (HLA-A*01:01; [23]) was at most 4.70, the pKd (HLA-B*58:01; [23]) was at most 4.70 and the pKd (HLA-A*02:01 [2]; [23]) was at most 4.70. The pKd (HLA-B*18:01 [8]; [23]) was at most 4.70, the pKd (HLA-A*03:01 [4]; [23]) was at most 4.70 and the pKd (HLA-B*15:01 [5]; [23]) was at most 4.70. For the same sequence, the pKd (HLA-B*27:05; [23]) was at most 4.70, the pKd (HLA-A*31:01; [23]) was at most 4.70 and the pKd (HLA-A*11:01; [23]) was at most 4.70. It also gave a pKd (HLA-A*69:01; [23]) of at most 4.70, a pKd (HLA-B*07:02; [23]) of 6.42 and a pKd (HLA-B*46:01 [6]; [23]) of at most 4.70.

LTDAFHGYH showed a pKd (HLA-B*44:02; [24]) of at most 4.70, a pKd (HLA-A*24:02 [1]; [24]) of at most 4.70 and a pKd (HLA-B*40:01; [24]) of at most 4.70. It also gave a pKd (HLA-A*01:01; [24]) of 7.12, a pKd (HLA-B*58:01; [24]) of at most 4.70 and a pKd (HLA-A*02:01 [2]; [24]) of at most 4.70. The pKd (HLA-A*26:01 [9]; [25]) was at most 4.70, the pKd (HLA-B*18:01 [8]; [24]) was at most 4.70 and the pKd (HLA-B*08:01 [3]; [25]) was at most 4.70. For the same sequence, the pKd (HLA-A*03:01 [4]; [24]) was at most 4.70, the pKd (HLA-B*15:01 [5]; [24]) was at most 4.70 and the pKd (HLA-B*08:02; [25]) was at most 4.70. For the same sequence, the pKd (HLA-B*27:05; [24]) was at most 4.70, the pKd (HLA-B*07:02; [24]) was at most 4.70 and the pKd (HLA-B*46:01 [6]; [24]) was at most 4.70.

With MLMAASRAL the pKd (HLA-C*12:03) was 6.44, the pKd (HLA-C*03:03) was 8.70 and the pKd (HLA-A*02:01 [10]; [26]) was 8.96. For the same sequence, the pKd (HLA-B*35:01) was 7.33, the pKd (HLA-B*39:01; [26]) was 8.92 and the pKd (HLA-B*08:01 [7]; [26]) was 7.40.

SADPLASLL gave a pKd (HLA-B*44:02; [27]) of at most 4.70, a pKd (HLA-C*05:01) of at least 9.00 and a pKd (HLA-A*24:02 [1]; [27]) of at most 4.70. For the same sequence, the pKd (HLA-B*40:01; [22]) was 5.49, the pKd (HLA-B*58:01; [27]) was at most 4.70 and the pKd (HLA-A*02:01 [2]; [27]) was at most 4.70. For the same sequence, the pKd (HLA-B*08:01 [3]; [27]) was at most 4.70, the pKd (HLA-B*15:01 [5]; [27]) was at most 4.70 and the pKd (HLA-B*08:02; source organism: Influenza A virus(A/swine/Shandong/fNY/2003(H9N2))) was at most 4.70. The pKd (HLA-B*27:05; [22]) was 5.86, the pKd (HLA-A*31:01; [27]) was at most 4.70 and the pKd (HLA-A*11:01; [27]) was at most 4.70. It also gave a pKd (HLA-B*07:02; [27]) of at most 4.70 and a pKd (HLA-B*39:01; source organism: Influenza A virus H3N2) of 6.81.

Sequence SDRLHHDPL has a pKd (HLA-B*44:02; [28]) of at most 4.70, a pKd (HLA-A*24:02 [1]; [28]) of at most 4.70 and a pKd (HLA-B*40:01; [28]) of 6.55. For the same sequence, the pKd (HLA-A*01:01; [28]) was at most 4.70, the pKd (HLA-B*58:01; [28]) was at most 4.70 and the pKd (HLA-A*02:01 [2]; [28]) was at most 4.70. For the same sequence, the pKd (HLA-A*26:01 [9]; [28]) was at most 4.70, the pKd (HLA-A*03:01 [4]; [28]) was at most 4.70 and the pKd (HLA-B*15:01 [5]; [28]) was at most 4.70. For the same sequence, the pKd (HLA-B*08:02; [28]) was at most 4.70, the pKd (HLA-B*27:05; [28]) was at most 4.70 and the pKd (HLA-A*31:01; [28]) was at most 4.70. The pKd (HLA-A*11:01; [28]) was at most 4.70, the pKd (HLA-A*69:01; [28]) was at most 4.70 and the pKd (HLA-B*07:02; [28]) was at most 4.70. It also gave a pKd (HLA-B*46:01 [6]; [28]) of at most 4.70.

Sequence SLYPNVCIF has a pIC50 (HLA-A*24:02 [11]) of 7.42, a pIC50 (HLA-A*02:01 [12]) of 5.73 and a pIC50 (HLA-A*03:01 [13]) of at most 3.44. For the same sequence, the pIC50 (HLA-B*15:01 [14]) was 5.24 and the pKd (HLA-B*15:03) was 8.31.

Sequence YLHIHPFKI has a pKd (HLA-B*27:03) of at most 4.70, a pKd (HLA-A*29:02) of at most 4.70 and a pKd (HLA-B*51:01) of at most 4.70. It also gave a pKd (HLA-A*02:01 [10]; source organism: Entamoeba histolytica HM-1:IMSS) of 8.21, a pKd (HLA-A*26:01 [15]) of at most 4.70 and a pKd (HLA-A*02:19) of 7.17. It also gave a pKd (HLA-B*18:01 [16]) of at most 4.70, a pKd (HLA-A*03:01 [17]) of at most 4.70 and a pKd (HLA-B*57:01) of at most 4.70. For the same sequence, the pKd (HLA-B*15:01 [18]) was at most 4.70, the pKd (HLA-B*46:01 [19]) was at most 4.70 and the pKd (HLA-B*15:17) was at most 4.70.
